Measurements as given in patent publication US12018058B2, “Compositions and methods for diagnosing and/or treating kidney injury” (Boston Medical Center Corporation, priority 2018, dated 2024).
“Also recorded” adds a separate entry of the source.

Legend:
Assay type in all cases: cell-based
[1] = test system: PTEC; experiment: Toxicity of pharmacologic agents in PTEC; conditions: exposure to the IC50 dose for 48-72 hr; data not shown
Description: The inventors have also tested pharmacologic agents that disrupt NPM-Bax at specific steps in the cell death pathway (outlined in FIG. 11). These agents include geronylgeronylacetone (GGA), a potent Hsp70 inducer86, avrainvillamide, and NSC34888437. […] The inventors recently reported that GGA induces Hsp70 in murine PTEC and in the intact murine kidney. Hsp70 markedly reduces NPM-Bax complex formation during ischemic stress by 2 distinct mechanisms: a nucleolar-restricted Hsp70 mutant limits NPM translocation into the cytosol, whereas a cytosol restricted Hsp70 mutant sequesters […].

[2] = test system: primary human PTECs; conditions: PTECs, ATP depletion; versus control peptide
Description: Exposure to metabolic inhibitors is an established model of ischemic stress that reduces ATP content to, 10% of baseline values until recovery is initiated.24,26 To achieve ATP depletion, cells were washed three times in glucose-free DMEM (Invitrogen, Carlsbad, CA) followed by incubation in glucose-free DMEM containing sodium cyanide (5 mM) and 2-deoxy-glucose (5 mM) for the indicated times.26
Recovery was initiated by replacing the stress medium described above with complete primary cell culture medium containing glucose and substrates that support the rapid restoration of cell ATP.27
For in vitro testing in primary human PTECs, peptides ([…]) were tested that replicate the Bax domain responsible for binding NPM,34 or two peptides designed to interfere with NPM function were compared with a random nonspecific sequence of the same length (control). Peptides intended to interfere with NPM function overlap key phosphorylation sites located at the NPM amino terminus (peptide 2) or carboxy terminus (peptide 3) detected by mass spectrometry. To improve cell uptake, all peptides contained a cell-penetrating sequence13. For in vivo experiments, a renal-targeting sequence (NLS) was added to enhance renal peptide uptake.35 Peptides were commercially synthesized (Biomatik, Wilmington, DE) J Am Soc Nephrol 30: ccc-ccc, 2018 Nucleophosmin in AKI 3www.jasn.org BASIC RESEARCHas follows: NPM-Bax blocking peptide: Ac-KKKRKV-(bA)-[…]-COOH (SEQ ID NO: 8); peptide 2: AC-PKKKRKV-(bA)-[…]-COOH (SEQ ID NO: 9); and peptide 3: AC-PKKKRKV-(bA)-ESFKK-QEKTPKTPKGPSSVED-IKAK-COOH (SEQ ID NO: 10). A single dose ([…] of the NPM-Bax blocking or control peptide) was administered by tail vein injection immediately after release of the pedicle clamps(0 timepoint) […] in each experimental group. A total of 42 control and 56 experimental animals were studied.
Transient exposure to metabolic inhibitors replicates ischemia in vivo by activating Bax and causing cell death.13,29,36-38 Cell viability was assayed using a modified colorimetric technique (MTTassay).37 The number of surviving cells is expressed as a percentage of viable control cells detected at baseline. Serum BUN and creatinine levels were measured in tail vein blood samples for 7 days after ischemia using QuantiChrom BUN or creatinine assay kits (BioAssay Systems, Hayward, CA) according to the manufacturer's instructions.

[3] = test system: primary murine proximal tubule epithelial cells (PTECs); experiment: Functional bioassays of flag-tagged NPM phosphomimic proteins expressed in PTECs; conditions: for Postischemia cell survival: 60 minutes ATP depletion, FIG. 5E; for NPM localization in resting cells: absence of ischemic stress, FIG. 5A; for NPM-Bax complex formation: after ATP depletion, FIG. 5C; for NPM and active Bax accumulation in isolated mitochondria: after ischemic stress, FIG. 5D; for NPM oligomeric state: resting cells, native gel, FIG. 5B
Description: The biologic behavior of nucleophosmin (NPM) phosphomimic proteins assessed using functional bioassays performed in primary murine proximal tubule epithelial cells (PTECs) that express flag-tagged wild type (WT), a normal (Nor-M or NrNPM) NPM mimic protein, or a stress (Stre-M, StNPM, or Stress-M) NPM mimic protein that replicates differential NPM phosphorylation. […] EV, empty sgOpti vector; RDU, relative density unit. *P, 0.05 for Nor-M and Stress-M NPM phosphomimics versus control (CTL).
Human NPM cDNA (catalog no. 34553; Addgene, Cambridge, MA) and pCDH lentivector systems (System Biosciences, Mountain View, CA) were used to generate NPM wild-type, “NPM stress mimic” (T86E-S88E-T95E-T234A-S242A), and “NPM normal mimic” (T86A-S88A-T95A-T234E-S242E) lentiviral expression plasmids by PCR-based mutagenesis with a flag tag fused to the 59 open reading frame. PCR products were cloned into pCDH vector BamHI/EcoRI sites. All constructs were confirmed by DNA sequencing before cotransfection with pPACKG1 lentivector packaging plasmids into HEK293NT cells to generate lentipseudoviral particles. The resultant pseudoviruses were harvested and purified, and titers were determined according to the manufacturer's instructions. Cells were exposed to virus (MOT 5-8) diluted in Opti-MEM (Invitrogen). After 6 hours incubation with virus-infected medium, a complete culture medium was substituted for an additional 16-hour incubation period.
To determine the biologic role of differential NPM phosphorylation at these five serine/threonine sites and the contribution to cytotoxicity, two flag-tagged NPM phosphomutant proteins as well as wild-type NPM were generated and introduced into human proximal tubule cells. These two mimic proteins replicated the phosphorylation state of NPM in either its normal or stressed configuration at the five differentially phosphorylated sites identified by mass spectrometry (FIG. 4). Specific bioassays were then used to assess the effect of these five post-translational phosphorylation changes on toxic NPM behaviors, including translocation, deoligomerization, NPM-Bax complex formation, mitochondrial NPM and Bax accumulation, and cell death.
Based on this phospho-proteomic data, 32 site-specific, amino terminal, flag-tagged NPM proteins with differential phosphorylation were generated (see FIG. 4B) and placed in a lentiviral vector ([…] phospho-mimic proteins; ref Wang, Havasi et al. 2011). Both the plasmid sequence and protein expression were confirmed. Serine or threonine residues in each of the NPM phospho-mimics was rendered either nonphosphorylatable (alanine substitution) or phospho-mimetic (glutamic acid substitution) at each of the 5 NPM residues identified by mass spec to be altered by ischemia. These NPM phospho-mimics represent all of the possible combinations of constitutively non-phosphorylated and phosphorylated variants at all of the 5 phosphosites ([…], see table, FIG. 4B). The flag epitope facilitates immunohistochemistry for detecting NPM distribution, NPM oligomerization and immunoprecipitation (IP) for detecting interaction between Bax and each NPM phospho-mimic. To establish a causal link between phosphorylation and NPM-function, a flag-tagged NPM mimic that replicated the NPM phospho-state in healthy PTEC and kidney tissue (#10, “normal NPM mimic”) or replicated NPM phosphorylation in post-ischemic cells and tissue (#11; “stress-NPM mimic”; FIG. 4B) was introduced into primary murine PTEC for further study. Dramatic differences in the biologic behavior of these 2 NPM phospho-mimics were detected. […] Using this phospho-data generate 2 new therapeutic peptides that target either T86, S88 and T95 or T232 and S240 were generated (FIG. 4A) and tested (FIG. 7). Screening the remaining NPM mimic proteins can identify the specific function of all 5 phospho-sites.

[4] = listed as normal NPM-phospho-mimic

Row | Molecule | PTEC morphology and toxicity [1] | Cell survival after ischemic stress [2] | Postischemia cell survival [3] | NPM-Bax complex formation [3] | NPM and active Bax accumulation in isolated mitochondria [3] | NPM oligomeric state [3] | other results
1 | O=C(C[n+]1cccc2cc(Cl)ccc21)c1cccc([N+](=O)[O-])c1.[Br-] [NSC34888437] | does not alter PTEC morphology or cause significant toxicity | – | – | – | – | – | –
2 | CC1(C)C=Cc2c(ccc3c2[N+]([O-])=C2C3=C[C@@]34NC(=O)[C@]5(CCCN5C3=O)C[C@H]4C2(C)C)O1 [avrainvillamide] | does not alter PTEC morphology or cause significant toxicity | – | – | – | – | – | –
3 | AC-PKKKRKV-(bA)-ESFKK-QEKTPKTPKGPSSVED-IKAK-COOH (PKKKRKVAESFKKQEKTPKTPKGPSSVEDIKAK; N-acetyl, NLS PKKKRKV-betaAla N-terminal; MOD_RES (8)..(8) Beta-alanine) [peptide #3] | – | significantly improve cell survival | – | – | – | – | –
4 | AC-PKKKRKV-(bA)-TLKMSVQPTVSLGGFEITPPVVLRLK-COOH (PKKKRKVATLKMSVQPTVSLGGFEITPPVVLRLK; N-acetyl, NLS PKKKRKV, beta-alanine linker; MOD_RES (8)..(8) Beta-alanine) [peptide #2] | – | significantly improve cell survival | – | – | – | – | –
5 | normal mimic NPM: flag-tagged NPM phosphomutant T86A-S88A-T95A-T234E-S242E expressed by lentivirus (protein, left off: small tags and cut ends, flag-tagged NPM phosphomutant T86A-S88A-T95A-T234E-S242E expressed by lentivirus) MEDSMDMDMSPLRPQNYLFGCELKADKDYHFKVDNDENEHQLSLRTVSLGAGAKDELHIVEAEAMNYEGSPIKVTLATLKMSVQPAVALGGFEIAPPVVLRLKCGSGPVHISGQHLVAVEEDAESEDEEEEDVKLLSISGKRSAPGGGSKVPQKKVKLAADEDDDDDDEEDDDEDDDDDDFDDEEAEEKAPVKKSIRDTPAKNAQKSNQNGKDSKPSSTPRSKGQESFKKQEKEPKTPKGPESVEDIKAKMQASIEKGGSLPKVEAKFINYVKNCFRMTDQEAIQDLWQWRKSL | – | – | significantly reduced cell death; also recorded: improved PTEC survival | decreased NPM-Bax complex formation | decreased | formed large oligomers | NPM localization in resting cells ([3]; listed as normal NPM phosphomimic): accumulated in a nucleolar pattern; NPM localization in resting cells [3, 4]: exclusively localized to nucleoli; NPM-Bax complex formation [3, 4]: minimally complexed with Bax; NPM and active Bax accumulation in isolated mitochondria [3, 4]: did not accumulate in isolated mitochondria; NPM oligomeric state [3, 4]: remained in the oligomerized state
6 | stress mimic NPM: flag-tagged NPM phosphomutant T86E-S88E-T95E-T234A-S242A expressed by lentivirus (protein, left off: small tags and cut ends, flag-tagged NPM phosphomutant T86E-S88E-T95E-T234A-S242A expressed by lentivirus) MEDSMDMDMSPLRPQNYLFGCELKADKDYHFKVDNDENEHQLSLRTVSLGAGAKDELHIVEAEAMNYEGSPIKVTLATLKMSVQPEVELGGFEIEPPVVLRLKCGSGPVHISGQHLVAVEEDAESEDEEEEDVKLLSISGKRSAPGGGSKVPQKKVKLAADEDDDDDDEEDDDEDDDDDDFDDEEAEEKAPVKKSIRDTPAKNAQKSNQNGKDSKPSSTPRSKGQESFKKQEKAPKTPKGPASVEDIKAKMQASIEKGGSLPKVEAKFINYVKNCFRMTDQEAIQDLWQWRKSL | – | – | significantly lower | substantially greater | exceeded that observed with wild-type or normal mimic NPM | accumulated as small monomers | Postischemia cell survival ([3]; listed as stress NPM mimic): significantly decreased PTEC survival; NPM localization in resting cells ([3]; listed as NPM stress mimic protein): localized to the cytosol; NPM localization in resting cells ([3]; listed as stress NPM mimic): exclusively localized to the cytosol; NPM-Bax complex formation ([3]; listed as stress NPM mimic): markedly increased NPM-Bax complex formation; NPM and active Bax accumulation in isolated mitochondria ([3]; listed as stress NPM mimic): dramatically increased NPM accumulation in isolated mitochondria; NPM oligomeric state ([3]; listed as stress NPM mimic): caused marked NPM de-oligomerization
